Numbered stars: 1 amine (or outer) side, 2 acyl side, 3 side chain; on linkers, the order of the positions; unused ones are H or OH. Bridge positions count the residues as written; N and C are the ends. Square brackets hold non-standard residues; d marks the D form. Primed or numbered codes have the meaning given here. Ends that are not written are not given here. PEG9(31 atoms) = 1-amino-3,6,9,12,15,18,21,24,27-nonaoxatriacontan-30-oic acid; TTDS(3) = 1,13-Diamino-4,7,10-trioxatridecan-succinamic acid; Pro(3S,4R-methano) = O=C(O)[C@H]1NC[C@@H]2C[C@@H]21; cPrCO(1-aminomethyl) = O=C(C1(CN[*:1])CC1)[*:2]; Pro(4-spirocPr) = O=C(O)[C@@H]1CC2(CC2)CN1; Oic = O=C(O)[C@@H]1C[C@@H]2CCCC[C@@H]2N1; PEG8 = NCCOCCOCCOCCOCCOCCOCCOCCOCCC(=O)O; Pro‑D2 = L-proline (3,4-2H), deuterated; PEG6 = NCCOCCOCCOCCOCCOCCOCCC(=O)O; tBuAla = CC(C)(C)C[C@H](N)C(=O)O; PEG5 = NCCOCCOCCOCCOCCOCCC(=O)O; Pen = CC(C)(S)[C@H](N)C(=O)O; NMeC = CN[C@@H](CS)C(=O)O; PEG3 = NCCOCCOCCOCCC(=O)O; NMeA = CN[C@@H](C)C(=O)O; PEG2 = NCCOCCOCCC(=O)O; Sar = CNCC(=O)O
T1: recombinant rat MASP1 active protease (amino acids 302-704, C-terminal His Tag) (rat, UniProt Q8CHN8 302-704)
T1 sequence: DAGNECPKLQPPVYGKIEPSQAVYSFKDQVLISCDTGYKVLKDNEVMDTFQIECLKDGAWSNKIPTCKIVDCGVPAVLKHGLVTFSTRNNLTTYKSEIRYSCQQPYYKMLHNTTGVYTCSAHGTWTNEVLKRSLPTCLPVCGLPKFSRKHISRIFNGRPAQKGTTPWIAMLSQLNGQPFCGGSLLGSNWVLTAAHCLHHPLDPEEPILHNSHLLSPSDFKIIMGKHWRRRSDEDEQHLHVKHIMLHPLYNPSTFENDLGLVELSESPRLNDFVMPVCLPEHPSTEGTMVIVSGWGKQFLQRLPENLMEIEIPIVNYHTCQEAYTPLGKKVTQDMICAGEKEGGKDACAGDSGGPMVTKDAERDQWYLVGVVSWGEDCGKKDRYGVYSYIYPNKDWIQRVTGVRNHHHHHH

B1: Example 85: ((N-Me)G)-IC+SRS-((tBu)A)-PPI-(Pen)+IP-(TTDS)-NH2 (peptide)
peptide: [Sar]ICSRS[tBuAla]PPI[Pen]IP-{TTDS(3)-NH2}
modifications: disulfide 3-11
B2: Example 44: ((N-Me)G)-IC+SRS-((tBu)A)-PPI-(Pen)+IP-(PEG9(31 atoms))-NH2 (peptide)
peptide: [Sar]ICSRS[tBuAla]PPI[Pen]IP[PEG9(31 atoms)]-NH2
modifications: disulfide 3-11
B3: Example 88: ((N-Me)G)-IC+SRSLP-(Oic)-I-(Pen)+IPD-OH (peptide)
peptide: [Sar]ICSRSLP[Oic]I[Pen]IPD-OH
modifications: disulfide 3-11; N-terminus assumed
SMILES: CC[C@H](C)[C@H](NC(=O)CNC)C(=O)N[C@H]1CSSC(C)(C)[C@@H](C(=O)N[C@H](C(=O)N2CCC[C@H]2C(=O)N[C@@H](CC(=O)O)C(=O)O)[C@@H](C)CC)NC(=O)[C@H]([C@@H](C)CC)NC(=O)[C@@H]2C[C@@H]3CCCC[C@@H]3N2C(=O)[C@@H]2CCCN2C(=O)[C@H](CC(C)C)NC(=O)[C@H](CO)NC(=O)[C@H](CCCNC(=N)N)NC(=O)[C@H](CO)NC1=O
B4: Example 141: ((N-Me)G)-IC+SRSLP-(Oic)-I-(Pen)+IPD-(PEG8(28 atoms))-NH2 (peptide)
peptide: [Sar]ICSRSLP[Oic]I[Pen]IPD[PEG8]-NH2
modifications: disulfide 3-11; N-terminus assumed
SMILES: CC[C@H](C)[C@H](NC(=O)CNC)C(=O)N[C@H]1CSSC(C)(C)[C@@H](C(=O)N[C@H](C(=O)N2CCC[C@H]2C(=O)N[C@@H](CC(=O)O)C(=O)NCCOCCOCCOCCOCCOCCOCCOCCOCCC(N)=O)[C@@H](C)CC)NC(=O)[C@H]([C@@H](C)CC)NC(=O)[C@@H]2C[C@@H]3CCCC[C@@H]3N2C(=O)[C@@H]2CCCN2C(=O)[C@H](CC(C)C)NC(=O)[C@H](CO)NC(=O)[C@H](CCCNC(=N)N)NC(=O)[C@H](CO)NC1=O
B5: Example 72: ((N-Me)G)-IC+SRS-((tBu)A)-PPI-(Pen)+IP-(PEG2(13 atoms))-NH2 (peptide)
peptide: [Sar]ICSRS[tBuAla]PPI[Pen]IP-{PEG3-NH2}
modifications: disulfide 3-11
B6: Example 55: ((N-Me)G)-IC+SRS-((tBu)A)-PPI-(Pen)+IP-(PEG5-CH2CO2H (18 atoms))-NH2 (peptide)
peptide: [Sar]ICSRS[tBuAla]PPI[Pen]IP-{PEG5‑CH2CO2H (18 atoms)-NH2}
modifications: disulfide 3-11
B7: Example 109: ((N-Me)G)-IC+SRSLP-(Oic)-I-(Pen)+IP-NH2 (peptide)
peptide: [Sar]ICSRSLP[Oic]I[Pen]IP-NH2
modifications: disulfide 3-11; N-terminus assumed
SMILES: CC[C@H](C)[C@H](NC(=O)CNC)C(=O)N[C@H]1CSSC(C)(C)[C@@H](C(=O)N[C@H](C(=O)N2CCC[C@H]2C(N)=O)[C@@H](C)CC)NC(=O)[C@H]([C@@H](C)CC)NC(=O)[C@@H]2C[C@@H]3CCCC[C@@H]3N2C(=O)[C@@H]2CCCN2C(=O)[C@H](CC(C)C)NC(=O)[C@H](CO)NC(=O)[C@H](CCCNC(=N)N)NC(=O)[C@H](CO)NC1=O
B8: Example 90: ((N-Me)G)-IC+SRSL-((1S,2S,5R)-3-azabicyclo[3.1.0]hexane-2-carboxylic acid)-PI-(Pen)+IPE-NH2 (peptide)
peptide: [Sar]ICSRSL[Pro(3S,4R-methano)]PI[Pen]IPE-NH2
modifications: disulfide 3-11; N-terminus assumed
SMILES: CC[C@H](C)[C@H](NC(=O)CNC)C(=O)N[C@H]1CSSC(C)(C)[C@@H](C(=O)N[C@H](C(=O)N2CCC[C@H]2C(=O)N[C@@H](CCC(=O)O)C(N)=O)[C@@H](C)CC)NC(=O)[C@H]([C@@H](C)CC)NC(=O)[C@@H]2CCCN2C(=O)[C@@H]2[C@H]3C[C@H]3CN2C(=O)[C@H](CC(C)C)NC(=O)[C@H](CO)NC(=O)[C@H](CCCNC(=N)N)NC(=O)[C@H](CO)NC1=O
B9: Example 126: ((N-Me)A)-IC+SRS-((tBu)A)-PPI-(Pen)+IP-NH2 (peptide)
peptide: [NMeA]ICSRS[tBuAla]PPI[Pen]IP-NH2
modifications: disulfide 3-11; N-terminus assumed
SMILES: CC[C@H](C)[C@H](NC(=O)[C@H](C)NC)C(=O)N[C@H]1CSSC(C)(C)[C@@H](C(=O)N[C@H](C(=O)N2CCC[C@H]2C(N)=O)[C@@H](C)CC)NC(=O)[C@H]([C@@H](C)CC)NC(=O)[C@@H]2CCCN2C(=O)[C@@H]2CCCN2C(=O)[C@H](CC(C)(C)C)NC(=O)[C@H](CO)NC(=O)[C@H](CCCNC(=N)N)NC(=O)[C@H](CO)NC1=O
B10: Example 41: AIC+SRS-((tBu)A)-P-((6S)-5-Azaspiro[2.4]heptane-6-carboxylic acid)-I-((N-Me)C)+IPD-NH2 (peptide)
peptide: AICSRS[tBuAla]P[Pro(4-spirocPr)]I[NMeC]IPD-NH2
modifications: disulfide 3-11; N-terminus assumed
SMILES: CC[C@H](C)[C@H](NC(=O)[C@H](C)N)C(=O)N[C@H]1CSSC[C@@H](C(=O)N[C@H](C(=O)N2CCC[C@H]2C(=O)N[C@@H](CC(=O)O)C(N)=O)[C@@H](C)CC)N(C)C(=O)[C@H]([C@@H](C)CC)NC(=O)[C@@H]2CC3(CC3)CN2C(=O)[C@@H]2CCCN2C(=O)[C@H](CC(C)(C)C)NC(=O)[C@H](CO)NC(=O)[C@H](CCCNC(=N)N)NC(=O)[C@H](CO)NC1=O
B11: Example 67: ((N-Me)G)-IC+SRSLP-(Oic)-I-(Pen)+IP-NH2 (HCl salt) (peptide)
peptide: [Sar]ICSRSLP[Oic]I[Pen]IP-NH2
modifications: disulfide 3-11; also: HCl salt
B12: Example 54: VIC+SRS-((tBu)A)-PPI-(Pen)+IPD-NH2 (peptide)
peptide: VICSRS[tBuAla]PPI[Pen]IPD-NH2
modifications: disulfide 3-11; N-terminus assumed
SMILES: CC[C@H](C)[C@H](NC(=O)[C@@H](N)C(C)C)C(=O)N[C@H]1CSSC(C)(C)[C@@H](C(=O)N[C@H](C(=O)N2CCC[C@H]2C(=O)N[C@@H](CC(=O)O)C(N)=O)[C@@H](C)CC)NC(=O)[C@H]([C@@H](C)CC)NC(=O)[C@@H]2CCCN2C(=O)[C@@H]2CCCN2C(=O)[C@H](CC(C)(C)C)NC(=O)[C@H](CO)NC(=O)[C@H](CCCNC(=N)N)NC(=O)[C@H](CO)NC1=O
B13: Example 83: ((N-Me)G)-IC+SRSLP-(Oic)-I-(Pen)+IP-(PEG5-CH2CO2H (18 atoms))-NH2 (peptide)
peptide: [Sar]ICSRSLP[Oic]I[Pen]IP-{PEG5‑CH2CO2H (18 atoms)-NH2}
modifications: disulfide 3-11
B14: Example 140: ((N-Me)G)-IC+SRSLP-(Oic)-I-(Pen)+IP-(PEG5(22 atoms))-NH2 (peptide)
peptide: [Sar]ICSRSLP[Oic]I[Pen]IP[PEG6]-NH2
modifications: disulfide 3-11; N-terminus assumed
SMILES: CC[C@H](C)[C@H](NC(=O)CNC)C(=O)N[C@H]1CSSC(C)(C)[C@@H](C(=O)N[C@H](C(=O)N2CCC[C@H]2C(=O)NCCOCCOCCOCCOCCOCCOCCC(N)=O)[C@@H](C)CC)NC(=O)[C@H]([C@@H](C)CC)NC(=O)[C@@H]2C[C@@H]3CCCC[C@@H]3N2C(=O)[C@@H]2CCCN2C(=O)[C@H](CC(C)C)NC(=O)[C@H](CO)NC(=O)[C@H](CCCNC(=N)N)NC(=O)[C@H](CO)NC1=O
B15: Example 97: ((N-Me)G)-IC+SRSLP-(Oic)-I-(Pen)+IP-(PEG4(19 atoms))-NH2 (peptide)
peptide: [Sar]ICSRSLP[Oic]I[Pen]IP-{PEG5-NH2}
modifications: disulfide 3-11
B16: Example 39: ((N-Me)G)-IC+SRS-((tBu)A)-PPI-(Pen)+IP-(PEG1(10 atoms))-NH2 (HCl salt) (peptide)
peptide: [Sar]ICSRS[tBuAla]PPI[Pen]IP-{PEG2-NH2}
modifications: disulfide 3-11; also: HCl salt
B17: Example 21: AIC+SRS-((tBu)A)-PPI-(Pen)+IPe-NH2 (peptide)
peptide: AICSRS[tBuAla]PPI[Pen]IP[dE]-NH2
modifications: disulfide 3-11; N-terminus assumed
SMILES: CC[C@H](C)[C@H](NC(=O)[C@H](C)N)C(=O)N[C@H]1CSSC(C)(C)[C@@H](C(=O)N[C@H](C(=O)N2CCC[C@H]2C(=O)N[C@H](CCC(=O)O)C(N)=O)[C@@H](C)CC)NC(=O)[C@H]([C@@H](C)CC)NC(=O)[C@@H]2CCCN2C(=O)[C@@H]2CCCN2C(=O)[C@H](CC(C)(C)C)NC(=O)[C@H](CO)NC(=O)[C@H](CCCNC(=N)N)NC(=O)[C@H](CO)NC1=O
B18: Example 32: (ACMP)-IC+SRS-((tBu)A)-PPI-(Pen)+IPD-NH2 (peptide)
peptide: [cPrCO(1-aminomethyl)]ICSRS[tBuAla]PPI[Pen]IPD-NH2
modifications: disulfide 3-11; N-terminus assumed
SMILES: CC[C@H](C)[C@@H]1NC(=O)[C@@H]2CCCN2C(=O)[C@@H]2CCCN2C(=O)[C@H](CC(C)(C)C)NC(=O)[C@H](CO)NC(=O)[C@H](CCCNC(=N)N)NC(=O)[C@H](CO)NC(=O)[C@@H](NC(=O)[C@@H](NC(=O)C2(CN)CC2)[C@@H](C)CC)CSSC(C)(C)[C@@H](C(=O)N[C@H](C(=O)N2CCC[C@H]2C(=O)N[C@@H](CC(=O)O)C(N)=O)[C@@H](C)CC)NC1=O
B19: Example 142: AIC+SRSL-(Pro-D2)-(Oic)-I-(Pen)+IPD-OH (peptide)
peptide: AICSRSL[Pro‑D2][Oic]I[Pen]IPD-OH
modifications: disulfide 3-11

Biological target: recombinant rat MASP2 active protease (amino acids 296-685, C-terminal His Tag) (rat, UniProt Q9JJS8 296-685)
Sequence (Q9JJS8 other isoform, or with tags, fused parts or gaps limits assumed): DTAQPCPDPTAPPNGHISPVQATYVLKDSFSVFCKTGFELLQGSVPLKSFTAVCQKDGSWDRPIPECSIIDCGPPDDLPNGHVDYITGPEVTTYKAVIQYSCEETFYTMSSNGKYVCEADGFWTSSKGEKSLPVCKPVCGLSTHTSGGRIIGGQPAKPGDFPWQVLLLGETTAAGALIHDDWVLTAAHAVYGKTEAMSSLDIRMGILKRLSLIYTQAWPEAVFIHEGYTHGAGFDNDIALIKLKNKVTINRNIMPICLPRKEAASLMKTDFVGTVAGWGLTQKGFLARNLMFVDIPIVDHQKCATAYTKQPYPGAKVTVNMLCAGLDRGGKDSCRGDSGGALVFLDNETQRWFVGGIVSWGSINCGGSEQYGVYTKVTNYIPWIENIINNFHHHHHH
Assay: cell-based or functional assay

Row | Binder | rat MASP2 IC50 [nM]
1 | B1 | 37
2 | B2 | 35
3 | B3 | 68
4 | B4 | 95
5 | B5 | 27
6 | B6 | 27
7 | B7 | 42
8 | B8 | 55
9 | B9 | 10
10 | B10 | 13
11 | B11 | 36
12 | B12 | 48
13 | B13 | 48
14 | B14 | 50
15 | B15 | 51
16 | B16 | 37
17 | B17 | 40
18 | B18 | 48
19 | B19 | 17.1

Biological target: T1, recombinant rat MASP1 active protease …
Assay: cell-based or functional assay

Row | Binder | rat MASP1 IC50 [nM]
20 | B1 | 75
21 | B2 | 87
22 | B3 | 36
23 | B4 | 140
24 | B5 | 43
25 | B6 | 65
26 | B7 | 76
27 | B8 | 67
28 | B9 | 11
29 | B10 | 28
30 | B11 | 72
31 | B12 | 160
32 | B13 | 120
33 | B14 | 100
34 | B15 | 120
35 | B16 | 49
36 | B17 | 67
37 | B18 | 56
38 | B19 | 10.9
